According to paper PMC7196576, “Structural changes of a bacteriophage upon DNA packaging and maturation” (Protein & Cell, 2020):

B1: nozzle protein gp12 of bacteriophage T7 (natural protein, Escherichia coli bacteriophage T7, UniProt P03747 1-794, looked up)
chain: MALISQSIKNLKGGISQQPDILRYPDQGSRQVNGWSSETEGLQKRPPLVFLNTLGDNGALGQAPYIHLINRDEHEQYYAVFTGSGIRVFDLSGNEKQVRYPNGSNYIKTANPRNDLRMVTVADYTFIVNRNVVAQKNTKSVNLPNYNPNQDGLINVRGGQYGRELIVHINGKDVAKYKIPDGSQPEHVNNTDAQWLAEELAKQMRTNLSDWTVNVGQGFIHVTAPSGQQIDSFTTKDGYADQLINPVTHYAQSFSKLPPNAPNGYMVKIVGDASKSADQYYVRYDAERKVWTETLGWNTEDQVLWETMPHALVRAADGNFDFKWLEWSPKSCGDVDTNPWPSFVGSSINDVFFFRNRLGFLSGENIILSRTAKYFNFYPASIANLSDDDPIDVAVSTNRIAILKYAVPFSEELLIWSDEAQFVLTASGTLTSKSVELNLTTQFDVQDRARPFGIGRNVYFASPRSSFTSIHRYYAVQDVSSVKNAEDITSHVPNYIPNGVFSICGSGTENFCSVLSHGDPSKIFMYKFLYLNEELRQQSWSHWDFGENVQVLACQSISSDMYVILRNEFNTFLARISFTKNAIDLQGEPYRAFMDMKIRYTIPSGTYNDDTFTTSIHIPTIYGANFGRGKITVLEPDGKITVFEQPTAGWNSDPWLRLSGNLEGRMVYIGFNINFVYEFSKFLIKQTADDGSTSTEDIGRLQLRRAWVNYENSGTFDIYVENQSSNWKYTMAGARLGSNTLRAGRLNLGTGQYRFPVVGNAKFNTVYILSDETTPLNIIGCGWEGNYLRRSSGI
notes: nozzle protein gp12, Escherichia coli bacteriophage T7; Native protein in the virion; hexameric tube; source: in mature T7 phage purified from cells
B2: portal protein gp8 of bacteriophage T7 (natural protein, Escherichia coli bacteriophage T7, UniProt P03728 1-536, looked up)
chain: MAEKRTGLAEDGAKSVYERLKNDRAPYETRAQNCAQYTIPSLFPKDSDNASTDYQTPWQAVGARGLNNLASKLMLALFPMQTWMRLTISEYEAKQLLSDPDGLAKVDEGLSMVERIIMNYIESNSYRVTLFEALKQLVVAGNVLLYLPEPEGSNYNPMKLYRLSSYVVQRDAFGNVLQMVTRDQIAFGALPEDIRKAVEGQGGEKKADETIDVYTHIYLDEDSGEYLRYEEVEGMEVQGSDGTYPKEACPYIPIRMVRLDGESYGRSYIEEYLGDLRSLENLQEAIVKMSMISSKVIGLVNPAGITQPRRLTKAQTGDFVTGRPEDISFLQLEKQADFTVAKAVSDAIEARLSFAFMLNSAVQRTGERVTAEEIRYVASELEDTLGGVYSILSQELQLPLVRVLLKQLQATQQIPELPKEAVEPTISTGLEAIGRGQDLDKLERCVTAWAALAPMRDDPDINLAMIKLRIANAIGIDTSGILLTEEQKQQKMAQQSMQMGMDNGAAALAQGMAAQATASPEAMAAAADSVGLQPGI
notes: portal protein gp8, Escherichia coli bacteriophage T7; domains clip (294-334), stem (335-356 and 269-293), wing (1-268, 357-427), crown (428-492), C-terminal helical barrel; Native protein in the virion; dodecamer at one vertex; The C-terminal barrel is not seen in capsid II; also called T7 portal; source: in mature T7 phage and T7 capsid II particles purified from cells; copies: 12
B3: tail fiber gp17 of bacteriophage T7 (natural protein, Escherichia coli bacteriophage T7, UniProt P03748 1-553, looked up)
chain: MANVIKTVLTYQLDGSNRDFNIPFEYLARKFVVVTLIGVDRKVLTINTDYRFATRTTISLTKAWGPADGYTTIELRRVTSTTDRLVDFTDGSILRAYDLNVAQIQTMHVAEEARDLTTDTIGVNNDGHLDARGRRIVNLANAVDDRDAVPFGQLKTMNQNSWQARNEALQFRNEAETFRNQAEGFKNESSTNATNTKQWRDETKGFRDEAKRFKNTAGQYATSAGNSASAAHQSEVNAENSATASANSAHLAEQQADRAEREADKLENYNGLAGAIDKVDGTNVYWKGNIHANGRLYMTTNGFDCGQYQQFFGGVTNRYSVMEWGDENGWLMYVQRREWTTAIGGNIQLVVNGQIITQGGAMTGQLKLQNGHVLQLESASDKAHYILSKDGNRNNWYIGRGSDNNNDCTFHSYVHGTTLTLKQDYAVVNKHFHVGQAVVATDGNIQGTKWGGKWLDAYLRDSFVAKSKAWTQVWSGSAGGGVSVTVSQDLRFRNIWIKCANNSWNFFRTGPDGIYFIASDGGWLRFQIHSNGLGFKNIADSRSVPNAIMVENE
notes: tail fiber protein gp17, Escherichia coli bacteriophage T7; only the N-terminus (a jelly-roll barrel and a 22-residue alpha-helix) was resolved; Native protein in the virion; six trimers a phage; The distal parts of the fibers were too flexible to be resolved; source: in mature T7 phage purified from cells
B4: adaptor protein gp11 of bacteriophage T7 (natural protein, Escherichia coli bacteriophage T7, UniProt P03746 1-196, looked up)
chain: MRSYDMNVETAAELSAVNDILASIGEPPVSTLEGDANADAANARRILNKINRQIQSRGWTFNIEEGITLLPDVYSNLIVYSDDYLSLMSTSGQSIYVNRGGYVYDRTSQSDRFDSGITVNIIRLRDYDEMPECFRYWIVTKASRQFNNRFFGAPEVEGVLQEEEDEARRLCMEYEMDYGGYNMLDGDAFTSGLLTR
notes: adaptor protein gp11, Escherichia coli bacteriophage T7; Native protein in the virion; dodecameric ring; also called tail adaptor; source: in mature T7 phage purified from cells; copies: 12

Molecular target: the molecule itself
Assay: cryo-EM structure; mature T7 phage purified from cells; icosahedral, symmetry-mismatch and local reconstructions (shell 3.5 Å, asymmetric 7 Å, portal-tail complex 3.8 Å, core 6.0 Å)

Protein | stoichiometry N
B1 | 6
B2 | 12
B3 | 3
B4 | 12
